The test concerns the target LAT-1(37-542)^GPS(T530A)::6xHis (C. elegans). Briefly: AUC; sedimentation equilibrium of the dimer fraction of the LAT-1 ectodomain; 20 uM - 60 uM protein, native conditions in PBS, 20°C / room temperature, 48 hr at 17,000 and 20,000 rpm, ideal monodisperse model.

Broadly, the stoichiometry N is a count of units in the complex or per binding partner. In the case of “LAT-1(37-542)^GPS(T530A)::6xHis (domain or fragment)”, the stoichiometry N was 2.
